The values below come from the DeepSol protein solubility set.

The nature of this data set: soluble on expression in E. coli; label from the status in PepcDB or PDB records.
For “AAIDPNRIVALEWLPVELLLALGIVPYGVADTINYRLWVSEPPLPDSVIDVGLRTEPNLELLTEMKPSFMVWSAGYGPSPEMLARIAPGRGFNFSDGKQPLAMARKSLTEMADLLNLQSAAETHLAQYEDFIRSMKPRFVKRGARPLLLTTLIDPRHMLVFGPNSLFQEILDEYGIPNAWQGETNFWGSTAVSIDRLAAYKDVDVLCFDHDNSKDMDALMATPLWQAMPFVRAGRFQRVPAVWFYGATLSAMHFVRVLDNAIGGKA”, the “soluble on expression in E. coli” value is “soluble”.

With “AAKVHVDIEADSPFIKSLQKAFPSFEVESLQVTPNDHANARAFSHLATKLIEQETDKDLILDIGSAPSRRMMSTHKYHCVCPMRSAEDPERLDSYAKKLAAASGKVLDREIAGKITDLQTVMATPDAESPTFCLHTDVTCRTAAEVAVYQDVYAVHAPTSLYHQAMKGVRTAYWIGFDTTPFMFDALAGAYPTYATNWADEQVLQARNIGLCAASLTEGRLGKLSILRKKQLKPCDTVMFSVGSTLYTESRKLLRSWHLPSVFHLKGKQSFTCRCDTIVSCEGYVVKKITMCPGLYGKTVGYAVTYHAEGFLVCKTTDTVKGERVSFPVCTYVPSTICDQMTGILATDVTPEDAQKLLVGLNQRIVVNGRTQRNTNTMKNYLLPIVAVAFSKWAREYKADLDDEKPLGVRERSLTCCCLWAFKTRKMHTMYKKPDTQTIVKVPSEFNSFVIPSLWSTGLAIPVRSRIKMLLAKKTKRELIPVLDASSARDAEQEEKERLEAELTREALPPLVPIAPAETGVVDVDVEELEYHAGA”, the “soluble on expression in E. coli” value was “not soluble”. For AAPYRCPLCRAGCPSLASMQAHMRGHS the value was “soluble”; for “AAWLQRKQFVSAGQEVAARLNTLGAELTQSRNDMREALALAQAQSGKVAELEGKVREAQSQYSALQQALQNLNDGASDEMLANDIERLITIASQQLRLAGNVSNAIVALETAQARLARADRPRFASLQQSINGDLDRLRAVGVVDIAAQSARIDRLVALVGRAPLLVPDAAAPGVTAVPQANEAVPASVDPGADLPADAAWWQRWQAEIASWPGRAGSALAHELGDLIRVQRVDQPTALLLSPEQAGQLRSTLRQRLLTAQLSMLMRQPAVWKSELDAVAATLAQYFDGKAPDTVAALALARELGQVEIAVRVPDVADSLNGIAALRAAGFNADG”, “not soluble”; for “ACQIFVRNLPFDFTWKMLKDKFNECGHVLYADIKMENGKSKGCGVVKFESPEVAERACRMMNGMKLSGREIDVRIDRNA”, “soluble”. For “ADPDTGVDTGAPYWTRPERMDKKLLAVPAANTVRFRCPAAGNPTPSISWLKNGREFRGEHRIGGIKLRHQQWSLVMESVVPSDRGNYTCVVENKFGSIRQTYTLDVLERSPHRPILQAGLPANQTAVLGSDVEFHCKVYSDAQPHIQWLKHVEVNGSKVGPDGTPYVTVLKSWISESVEADVRLRLANVSERDGGEYLCRATNFIGVAEKAFWLSVHGPRAAEEELVEADEAGSVHHHHHH” the value was “soluble”; for “ADQVDPQLKFAMQRDLGIFPTQLPQYLQTEKLARTQAAAIEREFGAQFAGSWIERNEDGSFKLVAATSGARKSSTLGGVEVRNVRYSLKQLQSAMEQLDAGANARVKGVSKPLDGVQSWYVDPRSNAVVVKVDDGATDAGVDFVALSGADSAQVRIESSPGKLQTT”, “soluble”; for “AEIKNVILMIGDGMGPQQVGLLETYANQAPNSIYKGNKTAIYQLAQEGVIGSSLTHPEDAIVVDSACSATMLATGIYSSSEVIGIDSQGNHVETVLEKAKKAGKATGLVSDTRLTHATPASFAAHQPHRSLENQIASDMLATGADVMLSGGLRHWIPKSTNDKGETYKQLEKLTQGDVYLKSKRKDDRNLLTEAEKDGYQLAFNRNMLDDAKGDKLLGLFAYSGMDDGIAYSNKKKSGERTQPSLKEMTQKALNILSKDEDGFFLMVEGGQIDWAGHSNDAGTMLHELLKFDEAIQTVYEWAKDREDTIVIVTADHETGSFGFSYSSNDLPKPQKRSGEAFADRDYAPNFNFGAFDILDGLYNQKQSYYGMISEFQKLDKSLQTPEKLAEIVNKNSEFPITAEQAKNVLASKPNPYRLAQHKYLSAEEVPAINDFDAFFPYNDRGNLLAREQATGQNIVWGTGTHTHTPVNVFAWGPAEKILPVSKIMHHSELGEYIKQQVN”, “soluble”. For “AEKQVTAGRHTYALPELFLVMATQNPIEQEGTYPLPEAQLDRFLLHLEVDYPDAEHELAILRINRGEAKGECSIERPSLSQQDIFTARQEVLDIHMAEAIEQYIVRLVMATRRASEYDSELDKWLAMGVSPRATIALDRCARAHAWLAGRDFVSPEDVQAMAYPVLRHRLLLSYHAQAEGVTSNQVIDKLLNLVGSA” the value was “not soluble”. For “AFLNKHFAKKNHNISVDELSHALELTDKAELTEENNILEGIIRFGGETAKEVMTSRLDVVDLDIRTPFKDVIQCIIDNAYSRIPIYSGTRDNIKGVLYIKDLLPHLNKGDNFRWQSLIRPAYFVPETKMIDDLLRDFQANKIHIAIVVDEFGGTSGIVTMEDIIEEIVGEIHDEYDD”, the “soluble on expression in E. coli” value is “soluble”. For “AFSGTWQVYAQENYEEFLKALALPEDLIKMARDIKPIVEIQQKGDDFVVTSKTPRQTVTNSFTLGKEADITTMDGKKLKCTVHLANGKLVTKSEKFSHEQEVKGNEMVETITFGGVTLIRRSKRV” the value was “soluble”. For “AFTGKFEMESEKNYDEFMKLLGISSDVIEKARNFKIVTEVQQDGQDFTWSQHYSGGHTMTNKFTVGKESNIQTMGGKTFKATVQMEGGKLVVNFPNYHQTSEIVGDKLVEVSTIGGVTYERVSKRLA” the value was “soluble”; for “AFTGKYEIESEKNYDEFMKRLALPSDAIDKARNLKIISEVKQDGQNFTWSQQYPGGHSITNTFTIGKECDIETIGGKKFKATVQMEGGKVVVNSPNYHHTAEIVDGKLVEVSTVGGVSYERVSKKLA”, “soluble”. For “AGMELVGWLVDKGITSEKQWIQEDQASYISFNAASNSRSQIKAALDNAGKIMSLTKTAPDYLVGQQPVEDISSNRIYKILELNGYDPQYAASVFLGWATKKFGKRNTIWLFGPATTGKTNIAEAIAHTVPFYGCVNWTNENFPFNDCVDKMVIWWEEGKMTAKVVESAKAILGGSKVRVDQKCKSSAQIDPTPVIVTSNTNMCAVIDGNSTTFEHQQPLQDRMFKFELTRRLDHDFGKVTKQEVKDFFRWAKDHVVEVEHEFYVKKGG” the value was “soluble”; for “AHHHHHHGSFEISIYLPTEIVFGPGKLEMLPKLVKKHGLSGKALIVTGRRSTKETGVLYRVQELLKQAGVESIVFDKIIPNPISTHVDEGAEIARKENVSFVVGLGGGSAIDSAKAIAMTAASGGKYWDYVPAVGGGKKPTGALPIVAIPTTHGTGTEADPYAVITNPETKEKQGIGYDVLFPKFSIVDPELMLTLPKDQTVYTSMDAFYHSIEAFLNVRANPYSDVLALDSMRRIVTYLPLAYENLRNLEARTQLAWASTEAGITETVTGVVANHALEHGLSGFYPEVPHGLGLCILGPYLFEYILDYAYEKLAIVGREVFGVYEPNDRKAAELAIKKLRDFQSLFGVNKKLRELGVKEEDIPEMARTAYRMMKPVIEATPGDLKVEDLEEIYRRAY”, “soluble”. For the sequence “AHHHHHHGSGRFVVWPSELDSRLSRKYGRIVPRSIAVESPRVEEIVRAAEELKFKVIRVEEDKLNPRLSGIDEELRTFGMIVLESPYGKSKSLKLIAQKIREFRRRSA”, the “soluble on expression in E. coli” value was “not soluble”. Turning to “AHHHHHHGSIIAITGTPGVGKTTVARKLAEKLGCKYVNLRDFALEKGIGEVKGDELEVEVDELAYFVEKEFKGKNVVLDGHLSHLMPADLVIVLRAHPKTIAERLKERGYSKDKIGENVEAELVDVILIEALDEHENVIEVDTTGKTPEEVVNEILNLINSGIKRRVGIVDWTKVYEEIIPYLRLGGD”, the “soluble on expression in E. coli” value is on record as “not soluble”. For “AHHHHHHGSIVPALIGSLPRPIGLAKKLEQYYIGRLDERKLEEAYREYTRRAFEKLRDAKIKVITDGLYRWDDIFNPFIRFIDGIEVNGLFKFYENNFFYRSPVVRGEIALKENPIPEWISIAQEIKEDVYPEATLKAVLPGPVTLAYHSINEYYKTLTDLAEAYAQVIGELIKELDVKIVELQEPSLAAEISEATKNIEDRVDKEVAKNIIEDLGRIKKLWVVTYFGTPQVLPEGVILNVDLIEGSVPEEYSGEIGLGIVDARTTKMERADRLRDKIRKYLAKFETIYVTPNTLLDFLPESVAWKKLRLLGRLGGE” the value was “not soluble”.
